Measured values reported in patent publication US20240116985A1 (published 2024).
Starred links: 1 amine or outer side, 2 acyl side, 3 side chain; linkers in the order of their positions; H or OH if unused. Positions of bridges follow the written chain, without caps; N, C: chain ends. Non-standard residues stand in square brackets, D forms with d. Primed or numbered codes have the meaning given here. B5(11) = 2,2-bis(4-pentenyl)glycine = 2-amino-2-(pent-4-en-1-yl)hept-6-enoic acid (stitching residue, bears both staples), C=CCCCC(CCCC=C)(N[*:1])C(=O)[*:2]; B5(16) = 2-amino-2-(pent-4-en-1-yl)hept-6-enoic acid = 2,2-bis(4-pentenyl)glycine (stitching residue), C=CCCCC(CCCC=C)(N[*:1])C(=O)[*:2]; B5(9) = 2-amino-2-(pent-4-en-1-yl)hept-6-enoic acid (2,2-bis(4-pentenyl)glycine), C=CCCCC(CCCC=C)(N[*:1])C(=O)[*:2]; Bta = N[C@@H](Cc1csc2ccccc12)C(=O)O; αAllylPro = C=CC[C@@]1(C(=O)O)CCCN1; NMeH = CN[C@@H](Cc1c[nH]cn1)C(=O)O; S8 = C=CCCCCCC[C@](C)(N)C(=O)O

T1: full-length beta-Catenin (Uniprot ID P35222) (Homo sapiens (Human), UniProt P35222 1-781)
T1 construct: also called bCat; B-Catenin
T1 sequence: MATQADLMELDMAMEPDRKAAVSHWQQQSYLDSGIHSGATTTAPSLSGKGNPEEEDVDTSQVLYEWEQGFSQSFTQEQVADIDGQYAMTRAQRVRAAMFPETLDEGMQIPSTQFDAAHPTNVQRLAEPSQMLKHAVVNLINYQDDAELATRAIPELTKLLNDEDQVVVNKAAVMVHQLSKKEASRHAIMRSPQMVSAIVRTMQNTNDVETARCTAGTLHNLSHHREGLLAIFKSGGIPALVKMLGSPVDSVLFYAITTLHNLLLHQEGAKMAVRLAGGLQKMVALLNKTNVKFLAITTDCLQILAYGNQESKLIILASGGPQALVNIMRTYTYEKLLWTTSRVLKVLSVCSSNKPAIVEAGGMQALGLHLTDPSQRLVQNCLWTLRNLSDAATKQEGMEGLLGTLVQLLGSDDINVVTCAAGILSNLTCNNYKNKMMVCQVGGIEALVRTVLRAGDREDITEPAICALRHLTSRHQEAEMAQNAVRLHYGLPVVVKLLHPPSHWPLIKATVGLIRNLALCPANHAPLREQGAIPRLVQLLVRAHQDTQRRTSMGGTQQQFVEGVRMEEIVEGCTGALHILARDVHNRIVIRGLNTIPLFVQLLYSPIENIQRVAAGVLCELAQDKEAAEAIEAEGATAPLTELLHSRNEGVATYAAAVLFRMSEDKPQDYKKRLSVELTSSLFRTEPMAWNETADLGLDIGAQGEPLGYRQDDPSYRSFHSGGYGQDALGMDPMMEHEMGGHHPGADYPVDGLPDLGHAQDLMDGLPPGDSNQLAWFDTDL

T2: full-length beta-Catenin (Uniprot ID P35222) (Homo sapiens (Human), UniProt P35222 2-781)
T2 construct: Tags of the recombinant protein are not described for the FP assay; also called bCat; B-Catenin
T2 sequence: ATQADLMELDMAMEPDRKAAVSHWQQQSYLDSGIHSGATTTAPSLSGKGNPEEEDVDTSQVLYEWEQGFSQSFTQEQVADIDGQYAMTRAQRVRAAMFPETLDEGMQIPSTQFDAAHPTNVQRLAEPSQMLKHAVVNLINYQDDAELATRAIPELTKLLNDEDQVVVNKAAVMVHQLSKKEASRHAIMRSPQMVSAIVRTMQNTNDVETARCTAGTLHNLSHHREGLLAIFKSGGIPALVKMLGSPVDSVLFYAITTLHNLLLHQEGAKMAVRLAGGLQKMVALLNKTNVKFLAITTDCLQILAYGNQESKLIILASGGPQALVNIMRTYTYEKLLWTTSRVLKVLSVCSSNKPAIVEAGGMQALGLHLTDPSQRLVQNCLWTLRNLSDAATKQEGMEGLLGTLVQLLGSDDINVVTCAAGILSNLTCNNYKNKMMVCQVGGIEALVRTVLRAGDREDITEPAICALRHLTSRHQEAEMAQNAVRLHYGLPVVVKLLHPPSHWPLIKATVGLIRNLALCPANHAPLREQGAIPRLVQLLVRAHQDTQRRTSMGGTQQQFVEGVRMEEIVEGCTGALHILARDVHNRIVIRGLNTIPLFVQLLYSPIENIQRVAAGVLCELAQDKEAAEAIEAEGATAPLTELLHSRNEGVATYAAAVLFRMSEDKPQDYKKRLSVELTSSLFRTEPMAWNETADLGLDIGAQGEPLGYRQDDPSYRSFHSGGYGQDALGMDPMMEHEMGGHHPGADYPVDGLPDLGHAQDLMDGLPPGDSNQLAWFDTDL

B1: I-734 (peptide)
peptide: XDLXDEAAFNXFXQI
modifications: not fully specified; N-terminal Ac; C-terminal NH2; PL3 at 1, B5 at 4, S8 at 11, BztA at 13, dIle (D-Ile) at 15; stapled PL3-B5 and B5-S8 by olefin metathesis
notes: Stapled peptide; also called Ac-PL3-Asp-Leu-B5-Asp-Glu-Ala-Ala-Phe-Asn-S8-Phe-BztA-Gln-dIle-NH2
B2: I-744 (peptide)
peptide: XDLXDEAAFNXFXH
modifications: not fully specified; N-terminal Ac; C-terminal NH2; PL3 at 1, B5 at 4, S8 at 11, BztA at 13, dHis (D-His) at 14; stapled PL3-B5 and B5-S8 by olefin metathesis
notes: Stapled peptide; also called Ac-PL3-Asp-Leu-B5-Asp-Glu-Ala-Ala-Phe-Asn-S8-Phe-BztA-dHis-NH2
B3: I-748 (peptide)
peptide: XDLXDEAAFNXFXT
modifications: not fully specified; N-terminal Ac; C-terminal NH2; PL3 at 1, B5 at 4, S8 at 11, BztA at 13; stapled PL3-B5 and B5-S8 by olefin metathesis
notes: Stapled peptide; same description as I-749, earlier eluting staple isomer composition; also called Ac-PL3-Asp-Leu-B5-Asp-Glu-Ala-Ala-Phe-Asn-S8-Phe-BztA-Thr-NH2
B4: I-746 (peptide)
peptide: Ac-[αAllylPro]DL[B5(11)]DEAAFN[S8]F[Bta][NMeH]-NH2
modifications: staple 1-4, 4-11; not fully specified
notes: Stapled peptide; same description as I-747, earlier eluting staple isomer composition; also called Ac-PL3-Asp-Leu-B5-Asp-Glu-Ala-Ala-Phe-Asn-S8-Phe-BztA-NMeHis-NH2
B5: I-747 (peptide)
peptide: Ac-[αAllylPro]DL[B5(11)]DEAAFN[S8]F[Bta][NMeH]-NH2
modifications: staple 1-4, 4-11; not fully specified
notes: Stapled peptide; same description as I-746, later eluting staple isomer composition; also called Ac-PL3-Asp-Leu-B5-Asp-Glu-Ala-Ala-Phe-Asn-S8-Phe-BztA-NMeHis-NH2
B6: I-735 (peptide)
peptide: XDLXDEAAFNXFXQI
modifications: not fully specified; N-terminal Ac; C-terminal NH2; PL3 at 1, B5 at 4, S8 at 11, BztA at 13, dIle (D-Ile) at 15; stapled PL3-B5 and B5-S8 by olefin metathesis
notes: as for B1
B7: I-732 (peptide)
peptide: XDLXDEAAFNXFXQI
modifications: not fully specified; N-terminal Ac; C-terminal NH2; PL3 at 1, B5 at 4, S8 at 11, BztA at 13; stapled PL3-B5 and B5-S8 by olefin metathesis
notes: Stapled peptide; also called Ac-PL3-Asp-Leu-B5-Asp-Glu-Ala-Ala-Phe-Asn-S8-Phe-BztA-Gln-Ile-NH2
B8: I-739 (peptide)
peptide: XDLXDEAAFNXFXHA
modifications: not fully specified; N-terminal Ac; C-terminal NH2; PL3 at 1, B5 at 4, S8 at 11, BztA at 13, dAla (D-Ala) at 15; stapled PL3-B5 and B5-S8 by olefin metathesis
notes: also called Ac-PL3-Asp-Leu-B5-Asp-Glu-Ala-Ala-Phe-Asn-S8-Phe-BztA-His-dAla-NH2
B9: I-729 (peptide)
peptide: XDLXDEAAFNXFXQA
modifications: not fully specified; N-terminal Ac; C-terminal NH2; PL3 at 1, B5 at 4, S8 at 11, BztA at 13; stapled PL3-B5 and B5-S8 by olefin metathesis
notes: Stapled peptide; same description as I-730, earlier eluting staple isomer composition; also called Ac-PL3-Asp-Leu-B5-Asp-Glu-Ala-Ala-Phe-Asn-S8-Phe-BztA-Gln-Ala-NH2
B10: I-741 (peptide)
peptide: XDLXDEAAFNXFXHI
modifications: not fully specified; N-terminal Ac; C-terminal NH2; PL3 at 1, B5 at 4, S8 at 11, BztA at 13; stapled PL3-B5 and B5-S8 by olefin metathesis
notes: Stapled peptide; same description as I-740, later eluting staple isomer composition; also called Ac-PL3-Asp-Leu-B5-Asp-Glu-Ala-Ala-Phe-Asn-S8-Phe-BztA-His-Ile-NH2
B11: I-738 (peptide)
peptide: XDLXDEAAFNXFXHA
modifications: not fully specified; N-terminal Ac; C-terminal NH2; PL3 at 1, B5 at 4, S8 at 11, BztA at 13; stapled PL3-B5 and B5-S8 by olefin metathesis
notes: also called Ac-PL3-Asp-Leu-B5-Asp-Glu-Ala-Ala-Phe-Asn-S8-Phe-BztA-His-Ala-NH2
B12: I-740 (peptide)
peptide: XDLXDEAAFNXFXHI
modifications: not fully specified; N-terminal Ac; C-terminal NH2; PL3 at 1, B5 at 4, S8 at 11, BztA at 13; stapled PL3-B5 and B5-S8 by olefin metathesis
notes: Stapled peptide; same description as I-741, earlier eluting staple isomer composition; also called Ac-PL3-Asp-Leu-B5-Asp-Glu-Ala-Ala-Phe-Asn-S8-Phe-BztA-His-Ile-NH2
B13: I-742 (peptide)
peptide: XDLXDEAAFNXFXHI
modifications: not fully specified; N-terminal Ac; C-terminal NH2; PL3 at 1, B5 at 4, S8 at 11, BztA at 13, dIle (D-Ile) at 15; stapled PL3-B5 and B5-S8 by olefin metathesis
notes: also called Ac-PL3-Asp-Leu-B5-Asp-Glu-Ala-Ala-Phe-Asn-S8-Phe-BztA-His-dIle-NH2
B14: I-733 (peptide)
peptide: XDLXDEAAFNXFXQI
modifications: not fully specified; N-terminal Ac; C-terminal NH2; PL3 at 1, B5 at 4, S8 at 11, BztA at 13; stapled PL3-B5 and B5-S8 by olefin metathesis
notes: as for B7
B15: I-745 (peptide)
peptide: XDLXDEAAFNXFXH
modifications: not fully specified; N-terminal Ac; C-terminal NH2; PL3 at 1, B5 at 4, S8 at 11, BztA at 13, dHis (D-His) at 14; stapled PL3-B5 and B5-S8 by olefin metathesis
notes: Stapled peptide; same description as I-744, later eluting staple isomer composition; also called Ac-PL3-Asp-Leu-B5-Asp-Glu-Ala-Ala-Phe-Asn-S8-Phe-BztA-dHis-NH2
B16: I-648 (peptide)
peptide: Ac-[αAllylPro]DI[B5(9)]DELAFQ[S8]F[Bta]Q-NH2
modifications: staple 1-4, 4-11
notes: Stapled peptide composition; also called Ac-PL3-Asp-Ile-B5-Asp-Glu-Leu-Ala-Phe-Gln-S8-Phe-BztA-Gln-NH2
B17: I-650 (peptide)
peptide: Ac-[αAllylPro]DI[B5(16)]DEFAFQ[S8]F[Bta]Q-NH2
modifications: staple 1-4, 4-11
notes: Stapled peptide composition; also called Ac-PL3-Asp-Ile-B5-Asp-Glu-Phe-Ala-Phe-Gln-S8-Phe-BztA-Gln-NH2
B18: I-651 (peptide)
peptide: Ac-[αAllylPro]DI[B5(16)]DESAFQ[S8]F[Bta]Q-NH2
modifications: staple 1-4, 4-11
notes: Stapled peptide composition; also called Ac-PL3-Asp-Ile-B5-Asp-Glu-Ser-Ala-Phe-Gln-S8-Phe-BztA-Gln-NH2

These binders were tested against T1, full-length beta-Catenin (Uniprot ID …) (assay: fluorescence polarization competition; full-length beta-catenin, competitor 5FAM-TCF4(10-53) probe).
Procedure: (§1) The plate was incubated protected from light for 60 minutes at 20° C. prior to read. Reads were performed on a CLARIOstar plate reader (BMG Labtech) in duplicate, and data were fitted to a 1:1 binding model with hill slope using an in-house script. All provided concentrations are final concentrations.

IC50 [nM] | Binder
370 | B1
112 | B2
54 | B3
5000 | B4
2390 | B5
246 | B6
4220 | B7
53 | B8
56 | B9
226 | B10
63 | B11
376 | B12
159 | B13
4260 | B14
80 | B15

What follows are binders tested against T2, full-length beta-Catenin (Uniprot ID …) (assay: fluorescence polarization competition; full-length beta-catenin, competitor 5FAM-TCF4 10-53).
Procedure: as §1

IC50 [nM] | Binder
233 | B16
137 | B17
186 | B18
